# Test results as given in US20160287696A1, “PAN POLLEN IMMUNOGENS AND METHODS AND USES FOR IMMUNE RESPONSE MODULATION” (LA JOLLA INSTITUTE FOR ALLERGY AND IMMUNOLOGY, priority 2013, published 2016).
# Tested on: cultured PBMCs of the allergic donors
# Experiment: ELISPOT of IL-5 or IFNg production by cultured PBMCs of TG allergic donors in response to peptide
# Type: cell-based, human
# Conditions: for NTGA's containing at least one T cell epitope, Th+ (Col 2): NTGA number given = criterion met, TG allergic donors n=20; for No of PG+ & th+ peptides per NTGA / No of PP & Th+ peptides per NTGA: Table 6; for No of PG+ & th+ peptides per NTGA: PG+ peptides recognized by T cells of grass allergic donors (n=20); for No of PP & Th+ peptides per NTGA: PP peptides recognized by T cells of grass allergic donors (n=20); for # Th+: Table 7, peptides per NTGA recognized by T cells of grass allergic donors (n=20)
# Excerpt: Table 1 indicates for each of the 397 PG+ peptides in which non-grass pollen species a matching peptide with either less than 3, less than 2 or zero mismatches are found. The number of TG grass allergic donors (n=20) with an in vitro T cell response to the TG peptide sequence is also shown.
# A set of 93 proteins from Timothy grass (TG) pollen and the assembly of 822 peptides (15 mers) predicted to promiscuously bind HLA class II molecules shown in Table 9 and the immune reactivity in allergic donors have been reported in PCT application WO 2013/119863. […] Immune reactivity was determined by the production of IL-5 or IFNg from cultured PBMCs of the allergic donors in response to stimulation with a peptide and IL-5 and IFNg were measured by ELISPOT as described in Oseroff C et al, 2010.
# In short, T cell immune reactivity was determined using PBMCs isolated from study participants and stored in liquid nitrogen until further use. For experimental testing, PBMCs were thawed and expanded in vitro with TG pollen extract (50 μg/mL) or the peptide pool ([…]). The TG extract and peptide pools had each been previously titrated to determine optimal stimulation concentrations.
# Cytokine production by cultured PBMCs in response to antigen stimulation was measured by ELISPOT. Cells (1×10^5 cells/well) were plated and incubated with peptide (10 μg/mL), the peptide pool (5 μg/mL), or the TG extract (50 μg/mL). Phytohaemagglutinin (10 μg/mL) and medium alone were used as positive and negative controls, respectively. Samples were considered to produce a cytokine if 100 spot-forming cells (SFCs)/10^6 PBMCs were detected, with P .05 and a stimulation index of 2 or more. Criteria for individual peptides were the same except that a minimum of 20 SFCs were required for a sample to be counted as positive.
# Table 3 lists the 397 PG+ peptides and indicates for each non-grass pollen species whether a matching peptide with either less than 3, less than 2 or zero mismatches could be detected. The immune reactivity of the TG peptide was assessed as the number of TG grass allergic donors (n=20) having in vitro T cell response against the TG peptide.
Molecule,"NTGA's containing at least one T cell epitope, Th+ (Col 2)",No of PG+ & th+ peptides per NTGA,No of PP & Th+ peptides per NTGA,# Th+
"NTGA 65: Phl p wild type sequence, Table 2 (protein, Phleum Pratense) AMAVDLTPRQPTKAYGGDGGAYYEWSPAELPMLGVASIGAAKLSLAAGGMSLPSYSDSAKVAYVLQGKGTCGIVLPEATKEKVVAIKEGDALALPFGVVTWWHNTPESSTELVVLFLGDTSKGHTPGKFTNFQLTGATGIFTGFSTEFVARAWDLDQDAAASLVSTQPGTGIVKLAPGHKMPVARAEDRKGMALNCLEAKLDVDIPNGGRVVVLNTVNLPLVKEVGLGADLVRIDAHSMCSPGFSCDSAYQVTYIVRGSGRVQVVGPDGKRVLETRIEGGSLFIVPRFHVVSKIADASGMEWFSIITTPNPIFSHLAGKTSVWKAISPEVLEAAFNTTPEMEKLFRSKRLDSEIFFAPS",65,2,0,0
"NTGA 5/64: Phl p wild type full length sequence from which PG+ peptides of NTGA's 5 and 64 derive (protein, Phleum Pratense) MAAKCYPTVSDEYLAAVAKARRKLRGLIAEKNCAPLMLRIAWHSAGTFDVATKTGGPFGTMRCPAELAHGANAGLDIAVRLLEPIKEQVPILSYADFYQLAGVVAVEITGGPEVPFHPGRQDKTEPPPEGRLPDATLGSDHLRQVFTAQMGLSDQDIVALSGGHTLGRCHKERSGFEGAWTANPLIFDNSYFTELLTGEKEGLLQLPTDKTLLTDPAFRPLVEKYAADEDAFFADYAEAHLKLSELGFGE",5/64,,,
"NTGA 76: Phl p wild type sequence, Table 2 (protein, Phleum Pratense) MASHIVGYPRMGPKRELKFALESFWDGKSSAEDLEKVATDLRASIWKQMSEAGIKYIPSNTFSYYDQVLDTTAMLGAVPDRYSWTGGEIGHSTYFSMARGNATVPAMEMTKWFDTNYHFIVPELGPETKFSYASHKAVSEYKEAKALGVDTVPVLVGPVSYLLLSKAAKGVEKSFSLLSLLGGILPIYKEVVAELKAAGASWIQFDEPTLVKDLAAHELAAFSSAYAELESSLSGLNVLIETYFADVPAESYKTLTSLSGVTAYGFDLVRGTKTLDLLKSVGIPSGKYLFAGVVDGRNIWADDLAASLSTLESLEAIVGKDKLVVSTSCSLMHTAVDLVNETKLDSEIKSWLAFAAQKVVEVNALGKALVGLKDEAYFAANAAAQASRRSSPRVNNEEVQKAAAALKGSDHRRATTVSARLDAQQKKLNLPVLPTTTIGSFPQTMDLRRVRREYKAKKISEEAYVSAIKEEISKVVKIQEELDIDVLVHGEPERNDMVEYFGEQLSGFAFTANGWVQSYGSRCVKPPIIYGDVSRPNPMTVFWSKMAQSMTPRPMKGMLTGPV",76,5,0,0
"NTGA 51: Phl p wild type sequence, Table 2 (protein, Phleum Pratense) MSPAEPTREESVYMAKLAEQAERYEEMVEFMERVAKATGGAGPGEELSVEERNLLSVAYKNVIGARRASWRIISSIEQKEEGRGNDAHATTIRSYRSKIEAELAKICDGILALLDSHLVPSAGAAESKVFYLKMKGDYHRYLAEFKSGAERKEAAESTMNSYKAAQDIALADLAPTHPIRLGLALNFSVFYYEILNSPDRACNLAKQAFDEAISELDSLGEESYKDSTLIMQLLRDNLTLWTSDTNEDGGDEIKEAPAPKESGD",51,2,1,0
"NTGA 77: Phl p wild type sequence, Table 2 (protein, Phleum Pratense) QEVAGDVRMTDTRADEAERGITIKSTGISLYYEMSEESLASYKGDRDGNDYLINLIDSPGHVDFSSEVTAALRITDGALVVVDCIEGVCVQTETVLRQALGERIRPVLTVNKMDRCFLELQVDGEEAYQTFSRVIENANVIMATYEDALLGDVQVYPEKGTVAFSAGLHGWAFTLTNFAKMYASKFGVDESKMMERLWGENFFDPATKKWTSKNTGSGTCKRGFVQFCYEPIKQIIEICMNDQKDKLWPMLKKLGVTMKNDEKDLMGKALMKRVMQAWLPASRALLEMMVYHLPSPSKAQRYRVENLYEGPLDDVYANAIRNCDPEGPLMLYVSKMIPASDKGRFFAFGRVFAGRVATGMKVRIMGPNFVPGQKKDLYTKSVQRTVIWMGKKQESVEDVPCGNTVALVGLDQFITKNATLTGEKEVDACPIRAMKFSVSPVVRVAVQCKVASDLPKLVEGLKRLAKSDPMVLCSIEESGEHIIAGAGELHLEICLKDLQDDFMGGAEIIVSPPVVSFRETVLDKSCRTVMSKSPNKHNRLYMEARPLEEGLPEAIDEGRIGPRDDPKVRSKILSEEFGWDKDLAKKIWCFGPETTGPNMVVDMCKGVQYLNEIKDSVVAGFQWASKEGALADENMRGICFEVCDVVLHTDAIHRGGGQVIPTARRVIFASQLTAKPRLLEPVYLVEIQAPEGALGGIYGVLNQKRGHVFEEMQRPGTPLYNIKAYLPVIESFGFSATLRAATSGQAFPQCVFDHWDVMNSDPLEVDSQSFNLVKEIRKRKGLKEQMTPLSDFEDKL",77,4,2,0
"NTGA 62: Phl p wild type sequence, Table 2 (protein, Phleum Pratense) MRRLSLILLAAAALLAAAVSAEPGPAPKLSPDFYSQTCPRAERIIAEVVQSKQMANPTTAAGVLRVFFHDCFVSGCDASVLIAPTHYAKSEKDADINHSLPGDAFDAVVRSKLALELECPGVVSCADILAIASRVLVTMTGGPRYPVPLGRKDSLSSNPAAPDVELPHSNFTVGRIIELFTAKGFTVQEMVALSGAHTLGFSHCQEFASRIYNYRDKGGKPAPFDPSMNPTYAKGLQAACQDYQKDPTIAAFNDIMTPGKFDNMYYVNIERGLGLLSTDEDMWSDMRTKPFVQRYAANNTDFFEDFAKAIEKLSMYGVKTGADGEIRRRCDAFNSGPNIQ",62,1,0,2
"NTGA 56: Phl p wild type sequence, Table 2 (protein, Phleum Pratense) MARLLFPLPIAAAAVSASSIHLAASRFRLPVVSAARRGTLFGGRVAVRAPARLATRGVSAGAEAGGSAARAGTVIGPEEALEWVKNDRRRLLHVVYRVGDLDKTIKFYTECLGMKLLRKRDIPEERYTNAFLGYGPEDSHFVVELTYNYGVESYDIGSGFGHFGIAVEDVEKTVELIKAKGGTVTREPGPVKGGKSVIAFIEDPDGYKFELIERGPTPEPLCQVMLRVGDLDRAIKFYEKAFGMELLRRKDNPQYKYTIAMMGYGPEDKNAVLELTYNYGVKEYDKGNAYAQIAIGTDDVYKTAEVVRQNGGQITREPGPLPGISTKITACTDPDGWKSVFVDNLDFLKELEE",56,1,1,0
"NTGA 86: Phl p wild type sequence, Table 2 (protein, Phleum Pratense) MSTAEATREENVYMAKLAEQAERYEEMVEFMEKVAKTADVGELTVEERNLLSVAYKNVIGARRASWRIISSIEQKEESRGNEAYVASIKEYRTRIETELSKICDGILKLLDSHLVPSATAAESKVFYLKMKGDYHRYLAEFKAGAERKEAAENTLVAYKSAQDIALADLPTTHPIRLGLALNFSVFYYEILNSPDRACNLAKQAFDEAIAELDSLGEESYKDSTLIMQLLRDNLTLWTSDNADEGGDEIKEASKPEGEGH",86,1,1,0
"NTGA 34: Phl p wild type sequence, Table 2 (protein, Phleum Pratense) MSFSWICACVRAAAVAWEAGKPLSIEEVEVAPPQAMEVRVKILFTALCHTDVYFWEAKGQTPVFPRIFGHEAGGIVESVGEGVTDVAPGDHVLPVFTGECKECRHCKSAESNMCDLLRINTDRGVMISDGKSRFSIDGKPIFHFVGTSTFSEYTVMHVGCVAKINPEAPLDKVCVLSCGISTGLGASINVAKPPKGSTVAIFGLGAVGLAAAEGARIAGASRIIGIDLNANRFEEARKFGCTEFVNPKDHTKPVQEVLAEMTDGGVDRSVECTGNINAMIQAFECVHDGWGVAVLVGVPHKDAEFKTHPMNFLNERTLKGTFFGNFKPRTDLPNVVEMYMKKELEVEKFITHSVTFSEINKAFDLMAKGEGIRCIIRMEH",34,3,1,0
